The NTF2 design screens of Basanta et al. (2020)

Test: protease stability score; higher = more stable; yeast display proteolysis, trypsin and chymotrypsin;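 also: log10 excess protease needed over predicted unfolded state with 0 meaning unfolded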
Work on “DQRDVEKIATKLSEVVRTGDPHEFAKMADPNAKVEVGDKSWRGHEEIRDWLKQITDEADSIHVDSVTAQGDKIDMTITVDFNGKRVQFDIKIQMENGRIKKMKLDPDQQRKLER” yielded a protease stability score of 1.04. Work on “DQRDVKKAEHLLRILETGNESELKKMMDPNARARVGDTTYHGMDDFVRKLTHMRDRAKFEIKEYSATDHNGHIRVHVRREVNFNGRPDRVSFIVRFDIENGKVRSVIFNLPRELLEREKK” yielded a protease stability score of 0.429. Sequence “DQREIVTKILRDFVKAFKTGDQDKYEKLVDKDVEYNIGDKTYHGREEAKKLFRELVKQVDHYSVHYKSISVRNGRAKVEAIQYYKHDGRTYHNKVSYTFRIQGDKIRMQDATFS” has a protease stability score of 0.602. With “DQRERQEHAEHFNRVLQTNDPDRIKKLFDPNAKLQIGDSTFTGREDIDDAAKELKEQADHITVDRVHVHGNKVTLRFVMNVDGKSADATVTMIVKNGRAKEVHFDPRLEEQIKK” the protease stability score was -0.407. Sequence “DQRERVKKLFDRFQHNIKHGDKSKATNQFPPDVTMSIGDEDLHGRDAAKRYADNVANNADRFHHEIQDYKQKGNNANLRVKIVLNHNGTNHSHEADWVAVVHNGQARLKEVKFD” has a protease stability score of -0.078. For “DQRLWERFVKDLEENDEKSWQDLVDKDAKVEVGDTSYQGREHALTAIQKWVHQVDHVEIKSYRIHGDNVQIRMEVVINGRKMQVTVQAHLHNGKMKNIHMEATDRHVVEKLRELIS”, the protease stability score was 0.039. For “DQRTREKVAEDIDNNDPQKLQDQADENVRVEYGNKVVHGREQMQEWARSLKDDVDSLEVDHVELDGDKIDARVNFNVNGRRVVFTIEADAHNGTIQRLRMTVTSEEQDTHMKQAAN”, the protease stability score was -0.209. For “DQSELRDFVEEFLEIFRHGNEDDARRLVDKDATAKVGDKTYNGEEQVLDFLKQLRNRADHVQIDTFRVEGDKMEAHMRLNVNGKTVQVVIQAEVRNGRIKHFRMDPNDLRKLEK”, the protease stability score was 0.657. “DQTALKVFKEYLEVVLNGDEHEAVELVDKDVRMNVGDKRWHGQEHIEREIRNQTRHSRLDYDHVRFEDDGDKAVFKRTVRFTHNGKPDSSRNVMHATADNGRIKSMKVEDDR” showed a protease stability score of -0.334. In the case of “DQTDEAEKWMEHITRVLHHNDTDQMLELADENVKIDIGDKTYHGREQFSQLLRDIAERVDHFSQRIDSIRVNGDKVRIDFKNVLDHNGRKHSQQVVVEINRTNGQWRLKSLHKK”, the protease stability score is reported as 0.151. For “DRDDFRRVIHEVQKALKHGDREQLRRLLDENAKVKVGDKEYQGDERAVKVMTTIANKADRMEYKDIHLHGDSVYINVVLNHNGKKDTVVWVIAVNNGKVQFFAQETR”, the protease stability score was 1.01. “DRDEVHHLHELYKAIEDGDDKKAQDLMDENAKARIGDKHFRGMQHFVETLKKEKDHMRVKIDNMRFTERPNRVVVNIEVKRSNNGEPESEVYRAFADAHNGKFVNLVIEHNQ” showed a protease stability score of -0.056. Work on “DRDKERKVIEKLMNALQNNDENQIRKLIDPNARLVYGDKELHGREEVVKFLVTLLNQVDRIEYKSYDFHNGHANIDFTLRFNGQNATFTMEIRVKNGRVDHITLDPQQINRMNS” yielded a protease stability score of 0.885. In the case of “DRDLNRHVKRFMDIIQNGDPDKAMEMVDPNVEFHVGDKRVHGQEELRELIKKEHDEQRKEIDDMRYDDRGSKAKINIEVRVEHNGRPNTVREDWNVEAKNGKIKRMNAKVDQ”, the protease stability score is reported as -0.495. Sequence “DRDQEDSFAKKVADVIQTGNPDDMRKLADEDARVDVGDKQYTGREHVDEAVENERKRIDHQQINSFSVNNGQIHATVSYVHNGQTHRFVVNVEIHNGHIKRARWQSK” has a protease stability score of 0.273. “DREAKKRADQYMEVIQNGDPEKFKHQADENVRVEVGNHEYHGRESMAKELKKRRDEIRIDIRRYSIDNQGEKVRIEVDAVAQINGRPRTYSYVFEMTFQNGRIKKFTLQISEDDEQNLKS” gave a protease stability score of 0.014. “DREAKNVFEKLTKAFETGNEDDMRKLLDEDVRFNIGDREVHGREQAVEDLKRKRTQMRVDIHHVDQQNEPNRLSVNVRMVVEHNGRPRDVQRHAVFDVHNGRIKSVKEKDRQ” showed a protease stability score of -0.238. With “DREDESELAMRAAVNAATGNEDEVSKNADPNVRAIYGDKNYDGTENMKDVIRQVRERIDHIELKSFEQHGDHAVARAEAKHNGDESTLVVTARAENGRVKSMRFEIR” the protease stability score was -0.275. Work on “DREDHEHARTVFHNLQTGDFEEVKSLLDKNAKLTVGDRVLEGRDEIARQIRNELEEIRVEYVSVTFTVEGDKAQVHMVFKAEWNGNPADVRNVLRISQHNGRIKTMFIQISESQLEEYNR” yielded a protease stability score of 0.287. “DREDLAREMVERLEDIMKHNNEKELVNQMDENVRMTIGDKEYEGREAATKEAHDLFRRADHLRLSVETFNVQGDKAVITFQVVFNHNGRKSHDRVILDFRISGDKVKLVSQTKG” showed a protease stability score of 0.509.
